Results published in patent US20170190781A1.

Target: death receptor 3 (DR3) on human PBMCs / T cells (human) (UniProt Q93038)
Test: cell-based or functional assay

Sequence of death receptor 3 (DR3) on human PBMCs / T cells (human) (Q93038 25-417 limits assumed): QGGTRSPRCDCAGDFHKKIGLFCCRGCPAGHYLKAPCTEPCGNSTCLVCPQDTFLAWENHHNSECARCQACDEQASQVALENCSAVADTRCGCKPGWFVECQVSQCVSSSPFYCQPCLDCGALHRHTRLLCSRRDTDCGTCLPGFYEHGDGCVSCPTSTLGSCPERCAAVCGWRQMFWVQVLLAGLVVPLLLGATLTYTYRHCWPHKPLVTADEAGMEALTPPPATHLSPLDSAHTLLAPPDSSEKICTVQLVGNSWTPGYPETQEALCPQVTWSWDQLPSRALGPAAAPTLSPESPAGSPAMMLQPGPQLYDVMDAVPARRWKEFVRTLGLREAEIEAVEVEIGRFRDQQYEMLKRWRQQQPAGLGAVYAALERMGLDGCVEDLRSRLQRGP

Q: What does the source list for “recombinant soluble human Flag-TL1A(EC) (ligand)”?
A: IL-13 production by T cells with anti-CD3/anti-CD28, 1 ug/mL TL1A-flag (FIG. 4): 1300 pg/mL; IL-13 production by T cells with anti-CD3/anti-CD28, 1 ug/mL TL1A-flag (FIG. 8): 1850 pg/mL; p65 phosphorylation-positive cells (%) in PBMCs, 40 nM TL1A-flag (FIG. 2B): 55%; p65 phosphorylation-positive cells (%) in PBMCs, 40 nM TL1A-flag alone (FIG. 2A): 45%; p65 phosphorylation-positive cells (%) in PBMCs, TL1A alone (FIG. 3): 55%; p65 phosphorylation-positive cells (%) in PBMCs, TL1A alone (FIG. 5): 69.5%; p65 phosphorylation-positive cells (%) in PBMCs, TL1A alone (FIG. 6): 45%; p65 phosphorylation-positive cells (%) in PBMCs, TL1A alone (FIG. 7): 55%
